# Test results published in paper doi:10.1101/2025.11.11.685192 (bioRxiv, 2025).
# What was measured:
# [1] = target: gp130 S187-Y190 deletion mutant, soluble extracellular domain (gp130 ΔSY ECD) (human); assay: cryo-EM structure
# [2] = target: gp130 S187-Y190 deletion mutant, soluble extracellular domain (gp130 ΔSY ECD) (human); assay: SEC + SEC-MALS + native gel or EMSA
# [3] = target: gp130 V252G mutant, soluble extracellular domain (gp130 V252G ECD) (human); assay: cryo-EM structure
# [4] = target: gp130 D215G mutant, soluble extracellular domain (gp130 D215G ECD) (human); assay: cryo-EM structure
# [5] = target: full-length gp130 ΔSY with additional D4-D6 deletion (gp130 ΔSYΔ(D4-D6)) (human) (UniProt P40189); assay: cryo-EM structure
# [6] = target: full-length gp130 ΔSY with an additional D1 deletion (gp130 ΔSYΔD1) (human) (UniProt P40189); assay: cryo-EM structure
# native gel or EMSA = target: the molecule itself; assay: native gel or EMSA
# cryo-EM structure = target: the molecule itself; assay: cryo-EM structure
molecule,measurement,setting,value
"gp130 S187-Y190 deletion mutant, soluble extracellular domain (gp130 ΔSY ECD) (domain or fragment)",stoichiometry N,[1],2
same,stoichiometry N,[2],2
"gp130 V252G mutant, soluble extracellular domain (gp130 V252G ECD) (domain or fragment)",stoichiometry N,[3],2
"gp130 D215G mutant, soluble extracellular domain (gp130 D215G ECD) (domain or fragment)",stoichiometry N,[4],2
full-length gp130 ΔSY with additional D4-D6 deletion (gp130 ΔSYΔ(D4-D6)) (from UniProt P40189 23-918) (receptor),stoichiometry N,[5],2
full-length gp130 ΔSY with an additional D1 deletion (gp130 ΔSYΔD1) (from UniProt P40189 23-918) (receptor),stoichiometry N,[6],2
"full-length gp130 S187-Y190 deletion mutant (gp130 ΔSY full-length) (receptor, human, UniProt P40189 23-918, looked up) ELLDPCGYISPESPVVQLHSNFTAVCVLKEKCMDYFHVNANYIVWKTNHFTIPKEQYTIINRTASSVTFTDIASLNIQLTCNILTFGQLEQNVYGITIISGLPPEKPKNLSCIVNEGKKMRCEWDGGRETHLETNFTLKSEWATHKFADCKAKRDTPTSCTVDYFVNIEVWVEAENALGKVTSDHINFDPVYKVKPNPPHNLSVINSEELSSILKLTWTNPSIKSVIILKYNIQYRTKDASTWSQIPPEDTASTRSSFTVQDLKPFTEYVFRIRCMKEDGKGYWSDWSEEASGITYEDRPSKAPSFWYKIDPSHTQGYRTVQLVWKTLPPFEANGKILDYEVTLTRWKSHLQNYTVNATKLTVNLTNDRYLATLTVRNLVGKSDAAVLTIPACDFQATHPVMDLKAFPKDNMLWVEWTTPRESVKKYILEWCVLSDKAPCITDWQQEDGTVHRTYLRGNLAESKCYLITVTPVYADGPGSPESIKAYLKQAPPSKGPTVRTKKVGKNEAVLEWDQLPVDVQNGFIRNYTIFYRTIIGNETAVNVDSSHTEYTLSSLTSDTLYMVRMAAYTDEGGKDGPEFTFTTPKFAQGEIEAIVVPVCLAFLLTTLLGVLFCFNKRDLIKKHIWPNVPDPSKSHIAQWSPHTPPRHNFNSKDQMYSDGNFTDVSVVEIEANDKKPFPEDLKSLDLFKKEKINTEGHSSGIGGSSCMSSSRPSISSSDENESSQNTSSTVQYSTVVHSGYRHQVPSVQVFSRSESTQPLLDSEERPEDLQLVDHVDGGDGILPRQQYFKQNCSQHESSPDISHFERSKQVSSVNEEDFVRLKQQISDHISQSCGSGQMKMFQEVSAADAFGPGTEGQVERFETVGMEAATDEGMPKSYLPQTVRQGGYMPQ",stoichiometry N,native gel or EMSA,2
"full-length gp130 K173-D177 deletion mutant (gp130 ΔKD) (receptor, human, UniProt P40189 23-918, looked up) ELLDPCGYISPESPVVQLHSNFTAVCVLKEKCMDYFHVNANYIVWKTNHFTIPKEQYTIINRTASSVTFTDIASLNIQLTCNILTFGQLEQNVYGITIISGLPPEKPKNLSCIVNEGKKMRCEWDGGRETHLETNFTLKSEWATHKFADCTPTSCTVDYSTVYFVNIEVWVEAENALGKVTSDHINFDPVYKVKPNPPHNLSVINSEELSSILKLTWTNPSIKSVIILKYNIQYRTKDASTWSQIPPEDTASTRSSFTVQDLKPFTEYVFRIRCMKEDGKGYWSDWSEEASGITYEDRPSKAPSFWYKIDPSHTQGYRTVQLVWKTLPPFEANGKILDYEVTLTRWKSHLQNYTVNATKLTVNLTNDRYLATLTVRNLVGKSDAAVLTIPACDFQATHPVMDLKAFPKDNMLWVEWTTPRESVKKYILEWCVLSDKAPCITDWQQEDGTVHRTYLRGNLAESKCYLITVTPVYADGPGSPESIKAYLKQAPPSKGPTVRTKKVGKNEAVLEWDQLPVDVQNGFIRNYTIFYRTIIGNETAVNVDSSHTEYTLSSLTSDTLYMVRMAAYTDEGGKDGPEFTFTTPKFAQGEIEAIVVPVCLAFLLTTLLGVLFCFNKRDLIKKHIWPNVPDPSKSHIAQWSPHTPPRHNFNSKDQMYSDGNFTDVSVVEIEANDKKPFPEDLKSLDLFKKEKINTEGHSSGIGGSSCMSSSRPSISSSDENESSQNTSSTVQYSTVVHSGYRHQVPSVQVFSRSESTQPLLDSEERPEDLQLVDHVDGGDGILPRQQYFKQNCSQHESSPDISHFERSKQVSSVNEEDFVRLKQQISDHISQSCGSGQMKMFQEVSAADAFGPGTEGQVERFETVGMEAATDEGMPKSYLPQTVRQGGYMPQ",stoichiometry N,cryo-EM structure,2
"full-length gp130 E195-V196 deletion mutant (gp130 ΔEV) (receptor, human, UniProt P40189 23-918, looked up) ELLDPCGYISPESPVVQLHSNFTAVCVLKEKCMDYFHVNANYIVWKTNHFTIPKEQYTIINRTASSVTFTDIASLNIQLTCNILTFGQLEQNVYGITIISGLPPEKPKNLSCIVNEGKKMRCEWDGGRETHLETNFTLKSEWATHKFADCKAKRDTPTSCTVDYSTVYFVNIWVEAENALGKVTSDHINFDPVYKVKPNPPHNLSVINSEELSSILKLTWTNPSIKSVIILKYNIQYRTKDASTWSQIPPEDTASTRSSFTVQDLKPFTEYVFRIRCMKEDGKGYWSDWSEEASGITYEDRPSKAPSFWYKIDPSHTQGYRTVQLVWKTLPPFEANGKILDYEVTLTRWKSHLQNYTVNATKLTVNLTNDRYLATLTVRNLVGKSDAAVLTIPACDFQATHPVMDLKAFPKDNMLWVEWTTPRESVKKYILEWCVLSDKAPCITDWQQEDGTVHRTYLRGNLAESKCYLITVTPVYADGPGSPESIKAYLKQAPPSKGPTVRTKKVGKNEAVLEWDQLPVDVQNGFIRNYTIFYRTIIGNETAVNVDSSHTEYTLSSLTSDTLYMVRMAAYTDEGGKDGPEFTFTTPKFAQGEIEAIVVPVCLAFLLTTLLGVLFCFNKRDLIKKHIWPNVPDPSKSHIAQWSPHTPPRHNFNSKDQMYSDGNFTDVSVVEIEANDKKPFPEDLKSLDLFKKEKINTEGHSSGIGGSSCMSSSRPSISSSDENESSQNTSSTVQYSTVVHSGYRHQVPSVQVFSRSESTQPLLDSEERPEDLQLVDHVDGGDGILPRQQYFKQNCSQHESSPDISHFERSKQVSSVNEEDFVRLKQQISDHISQSCGSGQMKMFQEVSAADAFGPGTEGQVERFETVGMEAATDEGMPKSYLPQTVRQGGYMPQ",stoichiometry N,cryo-EM structure,2
"full-length gp130 P216H mutant (receptor, human, UniProt P40189 23-918, looked up) ELLDPCGYISPESPVVQLHSNFTAVCVLKEKCMDYFHVNANYIVWKTNHFTIPKEQYTIINRTASSVTFTDIASLNIQLTCNILTFGQLEQNVYGITIISGLPPEKPKNLSCIVNEGKKMRCEWDGGRETHLETNFTLKSEWATHKFADCKAKRDTPTSCTVDYSTVYFVNIEVWVEAENALGKVTSDHINFDHVYKVKPNPPHNLSVINSEELSSILKLTWTNPSIKSVIILKYNIQYRTKDASTWSQIPPEDTASTRSSFTVQDLKPFTEYVFRIRCMKEDGKGYWSDWSEEASGITYEDRPSKAPSFWYKIDPSHTQGYRTVQLVWKTLPPFEANGKILDYEVTLTRWKSHLQNYTVNATKLTVNLTNDRYLATLTVRNLVGKSDAAVLTIPACDFQATHPVMDLKAFPKDNMLWVEWTTPRESVKKYILEWCVLSDKAPCITDWQQEDGTVHRTYLRGNLAESKCYLITVTPVYADGPGSPESIKAYLKQAPPSKGPTVRTKKVGKNEAVLEWDQLPVDVQNGFIRNYTIFYRTIIGNETAVNVDSSHTEYTLSSLTSDTLYMVRMAAYTDEGGKDGPEFTFTTPKFAQGEIEAIVVPVCLAFLLTTLLGVLFCFNKRDLIKKHIWPNVPDPSKSHIAQWSPHTPPRHNFNSKDQMYSDGNFTDVSVVEIEANDKKPFPEDLKSLDLFKKEKINTEGHSSGIGGSSCMSSSRPSISSSDENESSQNTSSTVQYSTVVHSGYRHQVPSVQVFSRSESTQPLLDSEERPEDLQLVDHVDGGDGILPRQQYFKQNCSQHESSPDISHFERSKQVSSVNEEDFVRLKQQISDHISQSCGSGQMKMFQEVSAADAFGPGTEGQVERFETVGMEAATDEGMPKSYLPQTVRQGGYMPQ",stoichiometry N,cryo-EM structure,2
"full-length gp130 A418-F421 deletion mutant (gp130 ΔAF) (receptor, human, UniProt P40189 23-918, looked up) ELLDPCGYISPESPVVQLHSNFTAVCVLKEKCMDYFHVNANYIVWKTNHFTIPKEQYTIINRTASSVTFTDIASLNIQLTCNILTFGQLEQNVYGITIISGLPPEKPKNLSCIVNEGKKMRCEWDGGRETHLETNFTLKSEWATHKFADCKAKRDTPTSCTVDYSTVYFVNIEVWVEAENALGKVTSDHINFDPVYKVKPNPPHNLSVINSEELSSILKLTWTNPSIKSVIILKYNIQYRTKDASTWSQIPPEDTASTRSSFTVQDLKPFTEYVFRIRCMKEDGKGYWSDWSEEASGITYEDRPSKAPSFWYKIDPSHTQGYRTVQLVWKTLPPFEANGKILDYEVTLTRWKSHLQNYTVNATKLTVNLTNDRYLATLTVRNLVGKSDAAVLTIPQATHPVMDLKAFPKDNMLWVEWTTPRESVKKYILEWCVLSDKAPCITDWQQEDGTVHRTYLRGNLAESKCYLITVTPVYADGPGSPESIKAYLKQAPPSKGPTVRTKKVGKNEAVLEWDQLPVDVQNGFIRNYTIFYRTIIGNETAVNVDSSHTEYTLSSLTSDTLYMVRMAAYTDEGGKDGPEFTFTTPKFAQGEIEAIVVPVCLAFLLTTLLGVLFCFNKRDLIKKHIWPNVPDPSKSHIAQWSPHTPPRHNFNSKDQMYSDGNFTDVSVVEIEANDKKPFPEDLKSLDLFKKEKINTEGHSSGIGGSSCMSSSRPSISSSDENESSQNTSSTVQYSTVVHSGYRHQVPSVQVFSRSESTQPLLDSEERPEDLQLVDHVDGGDGILPRQQYFKQNCSQHESSPDISHFERSKQVSSVNEEDFVRLKQQISDHISQSCGSGQMKMFQEVSAADAFGPGTEGQVERFETVGMEAATDEGMPKSYLPQTVRQGGYMPQ",stoichiometry N,cryo-EM structure,2
